According to the DeepSol protein solubility set:

Experiment: soluble on expression in E. coli; label from the status in PepcDB or PDB records

Sequence | soluble on expression in E. coli
MSLNKNIKSLNLREKDPFLSREKQRYEHPLPSREWIIELLERKGVPSKIESLARELSITEDEYVFFERRLKAMARDGQVLINRRGAVCAADKLDLVKCRVEAHKDGFGFAVPLTPAKDGDFVLYERQMRGIMHGDIVTVRPAGMDRRGRREGTVLDIVERAQSKVVGRFYMDRGVAILEPEDKRLNQSIVLEPDGVARFKPESGQVIVGEIEVYPEQNRPAVAKIIEVLGDYADSGMEIEIAVRKHHLPHQFSEACAKAAKKIPVHVRKSDLKGRVDLRDLPLVTIDGETARDFDDAVFAEKVGRNYRLVVAIADVSHYVRPDDVIDADAQERSTSVYFPRRVIPMLPENLSNGICSLNPDVERLCMVCDMVVTYAGNIKEYRFYPAVMRSHARLTYNQVWKWISDGIDHPYKAQIDTLYKLFKILQKKRFERGAVEFESVETQMIFDDNGKIEKIVPVVRNDAHKLIEECMLAANVCAADFLLKNKHTALFRNHLGPTPEKLATLREQLGLLGLQLGGGDNPSPKDYAALVEQFKGRPDAELLQVMMLRSMQQAVYEPHCDGHFGLAYEAYAHFTSPIRRYPDLTVHRAIKAVLNQQTYTPKKSWQALGVHTSFCERRADDASRDVENWLKTYYMRDKVGEVFEGKISGMTSFGIFVTLDGIHIDGLVHISDLGEDYFNFRPEIMAIEGERSGIRFNMGDRVAVRVARADLDDGKIDFVLIAGGSGRGRKVKSSASAKPAGTAGKGKPKTAAEKKTARGGKVRGRGASAAAESRKKAKKPVPIKVKKRKGKSEGHHHHHH | not soluble
MSLNKPKIVILGAGYGGLMTVTRLTKYVGPNDADITLVNKHNYHYETTWMHEASAGTLHHDRCRYQIKDVINQSRVNFVQDTVKAIKIDEKKVVLANGELQYDYLVIGLGAVPETFGIKGLKEYAFPIANINTSRLLREHIELQFATYNTEAEKRPDRLTIVVGGAGFTGIEFLGELAARVPELCKEYDVDRSLVRIICVEAAPTVLPGFDPELVDYAVHYLEENGVEFKIGTAVQECTPEGVRVGKKDEEPEQIKSQTVVWAAGVRGHPIVEEAGFENMRGRVKVNPDLRAPGHDNVFILGDSSLFMNEDTERPYPPTAQIAMQQGITVAKNLGRLIKGGELEEFKPDIKGTVASLGEHNAVGVVYGRKLKGTPASFMKKVIDNRSLFMIGGLGLTLKKGKFKEGHHHHHH | soluble
MSLNPEEEVITLMKKAGIDLVATLPCDRIKNLLPLVSKNFPEIKMTREENGVGICAGFYLAGGKPLMLIQSTGLGNMINALESLNVTCKIPLPVLTSWRGVYKEAIEAQVPLGVHLPAILEGAGLAYTIIDEVEKLHQIENVISDAFENSRPHIALISPKVWEASECCAWQGAGMPEKPEVMERTCSIFLKKEVLKPVMLRNDAICAIASELDDEVTVTNLGVPCKELYACKDRDLNFYMFGSMGLVSSIGMGIALRSEKTVVAFDGDGSLLMNPNALLEIAKESPKNLIIIALDNGAYGSTGSQETCALRYIDLEIFANACGITNTAKVNAREELIKIFKKFRDMKELALIHVILKPGNTNAPNIPLSPEGAAKRFKEALEAKKNEGHHHHHH | soluble
MSLNRNDKRGARRNILAHYDLGNALFERLLDPTMMYSAAQFEHPGQTLEQAQLHKLERICQKLELSPDDHLLEIGSGWGSLAIHAATRYGCRVTTTTLSEAQYSHTLERVKALGLGQRVQVLREDYRDLQGTFDKLVSIEMIEAVGHRYLPVYFRQCASLLKPEGLMLLQAITIRDQRYAQAQRSVDFIQRYIFPGGALPSLSVLLDTASRHTGLNLVHMEDFGLDYAHTLRHWRENLRQARTALTDLGYDDMFQRLWEFYLCYCQGGFEERAIGVAHLLWAAEGHHHHHH | soluble
MSLNRYSVHPEQVKRFTTEELRSHFLMDSLFTENKLTMYYSHEDRVVIGGAAPGQSELKLDAGDFLKTDFFLERREIGIINVGQPGAVRVGDDEYVLQTKDFLYIGMGNQDVSFSSLNGEKAKFYFVSACAHKSYPTQKAALSELTPDRLGDDAASNVRSLYKVIHQDGIKSCQLMMGITMLDQNNNWNTMPAHVHDRRMEAYLYLDLEKDSKVFHFMGQPDETRHLVVGNEQAVLSPAWSIHSGAGTSNYSFVWAMAGENYTFTDMDLIPMDGLKEGHHHHHH | soluble
MSLNSATHLAAHEGSARRRQALGEFVRTARARITPQMAGLPAGSRRRTPGLRREEVAQLSDISVTWYTWIEQGREVTVSPAVWARIANVLHLARAERAYLFELAECADPQQPRDEGGDAPVSLQACVDAIDAPAYALDRAWNLLASNAAMRELFDDWPLRDAQPNLLRYIFLDPAARELVVDWDQRARRVVAEFRADAGAHLDEADVVALLDELNRASPVFAHWWTRHAVVEREGGLREFQHPRSGRQNLQQITFRLATHPELKLVMLLPSEGHHHHHH | soluble
MSLNTLLMHCRPGFEGEVCAEIAEHAATLEIPGYAKSKPASAHVEFVCQDADGAERLMRRLRFADLIFPRQWARGPGFIELPESQRIEVLLAELASYPVCGSLWLEVLDTNAGKEVSTFCRKFEKPLRAALVKAGRLQEDPALPRLLLTFRSGREVFVGLAEPRNSALWPMGIPRLKFPREAPSRSTLKLEEAWHQFIPRSEWDKRLAPDMLAVDLGAAPGGWTWQLVNREMRVTAVDNGPMAENLMYSGLVDHQKVDGYQYRPRQRVDWMVCDIVEKPARTGALIETWIGEGLCREAVVNLKLPMKQRYAEVRKILQRLRESFDARGLKVAIGCKQLYHDREEVTCHLRRLEREGGSHHHHHH | soluble
MSLNVDPNITKYVIKAKIVTDGVVEKPDVVGAIFGQTEGLLGEELDLRDLQKSGKIGRIEVEIDTKKGRTEGFVLIPSGLDQVESSILAAALETIDRIGPCKAKVDIEDVEDVRINKRDKVIQRAEELYKKMGTNGKSLSESIIQSVREEVEKKEILSYGEEHLPAGPAVGTSDSIIVVEGRNDVLNLLRYGIKNTIAVQGTSVPKTVKELSKARTVTLFVDGDHGGELIIKEMLQVADVDFIARAPPGTEVEELTYKQIVKALKYKAPVNQYLESHGMIEELKEFTEKNNKAIADMNVNTTVKEEPQQKKQEKEPKHVETAEVEAPVIEEINDINDPRFVRNKLNELFESKAVEIYDDAGNPIARYPVSDAAELMQSVKNGTTIISGGVISQRFVDIAFSMGVKSIYGMKIGHVTKKPDEIRVVTWEHMEGHHHHHH | soluble
MSLNVQTVAVIGSGTMGAGIAEVAASHGHQVLLYDISAEALTRAIDGIHARLNSRVTRGKLTAETCERTLKRLIPVTDIHALAAADLVIEAASERLEVKKALFAQLAEVCPPQTLLTTNTSSISITAIAAEIKNPERVAGLHFFNPAPVMKLVEVVSGLATAAEVVEQLCELTLSWGKQPVRCHSTPGFIVNRVARPYYSEAWRALEEQVAAPEVIDAALRDGAGFPMGPLELTDLIGQDVNFAVTCSVFNAFWQERRFLPSLVQQELVIGGRLGKKSGLGVYDWRAEREAVVGLEAVSDSFSPMKVEKKSDGVTEIDDVLLIETQGETAQALAIRLARPVVVIDKMAGKVVTIAAAAVNPDSATRKAIYYLQQQGKTVLQIADYPGMLIWRTVAMIINEALDALQKGVASEQDIDTAMRLGVNYPYGPLAWGAQLGWQRILRLLENLQHHYGEERYRPCSLLRQRALLESGYESEGHHHHHH | soluble
MSLPGNNSAKGTATGNATALWRNAQLATLNPAMDGIGAVENAVIAVRNGRIAFAGPESDLPDDLSTADETTDCGGRWITPALIDCHTHLVFGGNRAMEFEMRLNGATYEEIAKAGGGIVSSVRDTRALSDEVLVAQALPRLDTLLSEGVSTIEIKSGYGLDIETELKMLRVARRLETLRPVRIVTSYLAAHATPADYKGRNADYITDVVLPGLEKAHAEGLADAVDGFCEGIAFSVKEIDRVFAAAQQRGLPVKLHAEQLSNLGGAELAASYNALSADHLEYLDETGAKALAKAGTVAVLLPGAFYALREKQLPPVQALRDAGAEIALATDCNPGTSPLTSLLLTMNMGATLFRMTVEECLTATTRNAAKALGLLAETGTLEAGKSADFAIWDIERPAELVYRIGFNPLHARIFKGQKVSPEGHHHHHH | soluble
MSLPISLTDFFPIQGGMATRMVIEGANFGTDLSQIKVFFNQKEASILNVKNSIIYLLVPKLPGNDCIVTVKVGNQEARFTRNFQYIENYSVTTIAGQPGTNLFVEGTLAAAQFGPVQHLAIDDENNLFITERNGSDGKGTCSVLNEESGTVTFLFKASDNLNVPTVNAQTQNVYIPLDGGYTFYELNPVNQWIAKSRLVLHPSKEQQEAGMDDFEINWKHSLAFSRYDNMIYTRSYGGDLIKVDPETRVGQKIGNFFPNTDSFIVAHPTQPEILYIAYAAKHVIYTYNIETGEHKLFAGAFGQSGWNDGIATDAEFNSPRQMSLDMEGNIYIADSGNHCIRMIDKNGIVTTPIGQPGEAGYADGSPDMALLNDPRGVAVNSEGDVYIADLGNRCIRKLTLQLEHHHHHH | soluble
MSLPNSEDLRKPDAQREVGRHYPVTLDNQLVSTPEEEVIAPPSVMLRWETYQVANGESAALLFQRAGLSSRVLYELTSSNSDINNQLSKLMPKDELKFGFDKDNQLVQLKRTISPYETFVVTRSDSGFTSEFDKKEVTFQLNYAEAKITSNFWNAGVTAGLSANQIIELANMFGWDIDFALDIREGDQFKLLYQEKIVEGSVIGRGNIIAATFINQGSTFTAILDDNTGNYYDQNGRAMKKAFLRSPLDFRRVSSNFNPRRLHPVTGQIKAHRGTDYVAPVGTPIWAAGDGVVEKSSYNQFNGNYVYIRHSNTYITKYLHLQRRLVKTGERVKQGQTIGTLGGTGRVTGPHLHYEFLVNGIHKNPRTVELPQAQSLTGKAKETFIANAKQRMEKLERYSQLLYANQEGHHHHHH | soluble
MSLPQKSKVMHIARTLTGSTTQDEGQERQEAKTQDCQEDKRPETLVKGNGNNMECSRLREKQGVLIANRDGGTR | not soluble
MSLQEPFSQLESEIQVLKSHIANISGLSVPKNVLKNADGSTLKSLSEASLKVIEKTIRITAHAVNLKLRIETDIANLKNQIKLLTETKEQQDALSKALEASSTLVKLEDRHERLTERIQALEKKIDEAIRQLSYKESMPLSKEEKLWIREVNGINALLNNAGEDSLALKIEDLKVQVTALSQNEHSANEHLTDAEIQKRQNSIILAKLSLWLQNDLEKLDEVKQSVTDCIRRLREGHHHHHH | soluble
MSLQFIGAGLGRTGTLSLKLALERLGVGRCYHAMELAANLRQDLPQWESAIDGRPDWDRIFAGYAATTDYPGCCFWMELAARYPHAKVILTVRDPDAWFDSVSATIFSGSNNLPSLFGSRGQRLSQFLRRDLGARLGERAFMTDYFRRWNQAVITHIPAPRLLVLDTDTESSWERLCAFLALPVPAFPYPRVHMRGASVPQRPLPTEPALIEQRMRTYLDRLAEEAFAPPTAPLEHHHHHH | soluble
MSLQIAANKAVSIDYTLTNDAGDVIDSSAGGAPLVYLHGAGNIIVGLEKALEGKNVGDELSVAIEPEDAYGEYSAELVATLTREMFEGVDELEVGMQFHASAPDGGMQIVTIRDIDGDDVTVDGNHPLAGQRLNFKVKVVDVREANAEEIAHGHIHGEGGHHHEGGSHHHHHH | soluble
MSLQLADAQADLPYIHGFSAAEQARLVRQARFSEAMVYRDVDFSGVQKLLEVGCGVGAQTEILLRRFPDVGITGLDFSQRQLAVARQRLQGSPYHDRATLLHMDAEDLDFPPASFDGAFLCWILEHVHSPERVLAEVRRVLKPGARLYATEAMNATFFLAPYSANLQQYWLAFNDHQLSVGGDPFVGAKLGNILMRLGFRHVETKVKTWHLDSREPHRRQQVLDYWAELLLSAADQLIEAGRVDAELVDSMTRELRLLRSNPELVFFYSFMQASAVVEGHHHHHH | soluble
